Measurements as given in patent publication US20120282612A1.

What was measured:
[1] = biological target: PSA (prostate specific antigen) in serum of prostate cancer patient (human) (UniProt P07288); experiment: UEA-I agarose column, binding rate of PSA
[2] = biological target: PSA (prostate specific antigen) in serum of prostate cancer patient (human) (UniProt P07288); experiment: TJA-II-Sepharose column, binding rate of PSA
[3] = biological target: PSA (prostate specific antigen) in serum of prostatic hypertrophy patient (human) (UniProt P07288); experiment: TJA-II-Sepharose column, binding rate of PSA
[4] = biological target: PSA in seminal fluid of normal men (human) (UniProt P07288); experiment: TJA-II-Sepharose column, binding rate of PSA
[5] = biological target: Sialidase-treated PSA in seminal fluid of normal men (human) (UniProt P07288); experiment: TJA-II-Sepharose column, sialidase-treated sample
[6] = biological target: Sialidase-treated PSA in serum of prostate cancer patient (human) (UniProt P07288); experiment: TJA-II-Sepharose column, sialidase-treated sample
[7] = biological target: Sialidase-treated PSA in serum of prostatic hypertrophy patient (human) (UniProt P07288); experiment: TJA-II-Sepharose column, sialidase-treated sample
[8] = biological target: PSA (prostate specific antigen) in serum of prostate cancer patient (human) (UniProt P07288); experiment: TJA-II-Sepharose column, 20 sera of prostate cancer patients
[9] = biological target: PSA (prostate specific antigen) in serum of prostatic hypertrophy patient (human) (UniProt P07288); experiment: TJA-II-Sepharose column, 20 sera of prostatic hypertrophy patients
[10] = biological target: PSA (prostate specific antigen) in serum of prostate cancer patient (human) (UniProt P07288); experiment: TJA-II-Sepharose column, before sialidase treatment (Table 4 prints 16%)
[11] = biological target: PSA (prostate specific antigen) in serum of prostate cancer patient (human) (UniProt P07288); experiment: TJA-II-Sepharose column, serum of prostate cancer patient 1; total PSA immunoassay of fractions
[12] = biological target: PSA (prostate specific antigen) in serum of prostate cancer patient (human) (UniProt P07288); experiment: TJA-II-Sepharose column, serum of prostate cancer patient 2; total PSA immunoassay of fractions
[13] = biological target: PSA (prostate specific antigen) in serum of prostate cancer patient (human) (UniProt P07288); experiment: TJA-II-Sepharose column, serum of prostate cancer patient 3; total PSA immunoassay of fractions
[14] = biological target: PSA (prostate specific antigen) in serum of prostate cancer patient (human) (UniProt P07288); experiment: TJA-II-Sepharose column, serum of prostate cancer patient 4; total PSA immunoassay of fractions
[15] = biological target: PSA (prostate specific antigen) in serum of prostate cancer patient (human) (UniProt P07288); experiment: TJA-II-Sepharose column, serum of prostate cancer patient 5; total PSA immunoassay of fractions
[16] = biological target: PSA (prostate specific antigen) in serum of prostate cancer patient (human) (UniProt P07288); experiment: TJA-II-Sepharose column, serum of prostate cancer patient 6; total PSA immunoassay of fractions
[17] = biological target: PSA (prostate specific antigen) in serum of prostate cancer patient (human) (UniProt P07288); experiment: TJA-II-Sepharose column, serum of prostate cancer patient 7; total PSA immunoassay of fractions
[18] = biological target: PSA (prostate specific antigen) in serum of prostate cancer patient (human) (UniProt P07288); experiment: TJA-II-Sepharose column, serum of prostate cancer patient 8; total PSA immunoassay of fractions
[19] = biological target: PSA (prostate specific antigen) in serum of prostate cancer patient (human) (UniProt P07288); experiment: TJA-II-Sepharose column, serum of prostate cancer patient 9; total PSA immunoassay of fractions
[20] = biological target: PSA (prostate specific antigen) in serum of prostate cancer patient (human) (UniProt P07288); experiment: TJA-II-Sepharose column, serum of prostate cancer patient 10; total PSA immunoassay of fractions
[21] = biological target: PSA (prostate specific antigen) in serum of prostate cancer patient (human) (UniProt P07288); experiment: TJA-II-Sepharose column, serum of prostate cancer patient 11; total PSA immunoassay of fractions
[22] = biological target: PSA (prostate specific antigen) in serum of prostate cancer patient (human) (UniProt P07288); experiment: TJA-II-Sepharose column, serum of prostate cancer patient 12; total PSA immunoassay of fractions
[23] = biological target: PSA (prostate specific antigen) in serum of prostate cancer patient (human) (UniProt P07288); experiment: TJA-II-Sepharose column, serum of prostate cancer patient 13; total PSA immunoassay of fractions
[24] = biological target: PSA (prostate specific antigen) in serum of prostate cancer patient (human) (UniProt P07288); experiment: TJA-II-Sepharose column, serum of prostate cancer patient 14; total PSA immunoassay of fractions
[25] = biological target: PSA (prostate specific antigen) in serum of prostate cancer patient (human) (UniProt P07288); experiment: TJA-II-Sepharose column, serum of prostate cancer patient 15; total PSA immunoassay of fractions
[26] = biological target: PSA (prostate specific antigen) in serum of prostatic hypertrophy patient (human) (UniProt P07288); experiment: TJA-II-Sepharose column, serum of prostatic hypertrophy patient 1; total PSA immunoassay of fractions
[27] = biological target: PSA (prostate specific antigen) in serum of prostatic hypertrophy patient (human) (UniProt P07288); experiment: TJA-II-Sepharose column, serum of prostatic hypertrophy patient 2; total PSA immunoassay of fractions
[28] = biological target: PSA (prostate specific antigen) in serum of prostatic hypertrophy patient (human) (UniProt P07288); experiment: TJA-II-Sepharose column, serum of prostatic hypertrophy patient 3; total PSA immunoassay of fractions
[29] = biological target: PSA (prostate specific antigen) in serum of prostatic hypertrophy patient (human) (UniProt P07288); experiment: TJA-II-Sepharose column, serum of prostatic hypertrophy patient 4; total PSA immunoassay of fractions
[30] = biological target: PSA (prostate specific antigen) in serum of prostatic hypertrophy patient (human) (UniProt P07288); experiment: TJA-II-Sepharose column, serum of prostatic hypertrophy patient 5; total PSA immunoassay of fractions
[31] = biological target: PSA (prostate specific antigen) in serum of prostatic hypertrophy patient (human) (UniProt P07288); experiment: TJA-II-Sepharose column, serum of prostatic hypertrophy patient 6; total PSA immunoassay of fractions
[32] = biological target: PSA (prostate specific antigen) in serum of prostatic hypertrophy patient (human) (UniProt P07288); experiment: TJA-II-Sepharose column, serum of prostatic hypertrophy patient 7; total PSA immunoassay of fractions
[33] = biological target: PSA (prostate specific antigen) in serum of prostatic hypertrophy patient (human) (UniProt P07288); experiment: TJA-II-Sepharose column, serum of prostatic hypertrophy patient 8; total PSA immunoassay of fractions
[34] = biological target: PSA (prostate specific antigen) in serum of prostatic hypertrophy patient (human) (UniProt P07288); experiment: TJA-II-Sepharose column, serum of prostatic hypertrophy patient 9; total PSA immunoassay of fractions
[35] = biological target: PSA in seminal fluid of normal men (human) (UniProt P07288); experiment: MAA-Sepharose column, 5 ng purified PSA applied, 3.5 ng recovered in all fractions
[36] = biological target: PSA (prostate specific antigen) in serum of prostate cancer patient (human) (UniProt P07288); experiment: WFA-Sepharose column, binding rate of PSA
[37] = biological target: PSA (prostate specific antigen) in serum of prostate cancer patient (human) (UniProt P07288); experiment: WFA-Sepharose column, serum of prostate cancer patient 6; total PSA immunoassay of fractions
[38] = biological target: PSA (prostate specific antigen) in serum of prostate cancer patient (human) (UniProt P07288); experiment: WFA-Sepharose column, serum of prostate cancer patient 12; total PSA immunoassay of fractions
[39] = biological target: PSA (prostate specific antigen) in serum of prostate cancer patient (human) (UniProt P07288); experiment: WFA-Sepharose column, serum of prostate cancer patient 15; total PSA immunoassay of fractions

Maackia amurensis agglutinin, sequence (P0DKL3 30-278): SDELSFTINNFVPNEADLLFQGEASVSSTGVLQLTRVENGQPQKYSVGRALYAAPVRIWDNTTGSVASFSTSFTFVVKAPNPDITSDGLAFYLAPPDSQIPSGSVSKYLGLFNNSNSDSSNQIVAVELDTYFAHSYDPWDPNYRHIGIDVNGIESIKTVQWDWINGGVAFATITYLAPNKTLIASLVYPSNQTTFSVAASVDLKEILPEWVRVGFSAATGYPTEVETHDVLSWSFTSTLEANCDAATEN

Ulex europaeus agglutinin-1 (from UniProt P22972 1-243)
binding rate [1]: 5%

Trichosanthes japonica agglutinin-II
binding rate [2]: 16%
binding rate [3]: 2%
binding rate [4]: 2%
binding rate [5]: 8.4%
binding rate [6]: 59%
binding rate [7]: 2%
TJA-II binding rate [8]: > 2%
TJA-II binding rate [9]: < 2%
binding rate [10]: 11%
TJA-II binding ratio [11]: 6.4%
TJA-II-bound PSA in serum sample [11]: 128 ng/mL
TJA-II binding ratio [12]: 5%
TJA-II-bound PSA in serum sample [12]: 6.6 ng/mL
TJA-II binding ratio [13]: 3%
TJA-II-bound PSA in serum sample [13]: 2.4 ng/mL
TJA-II binding ratio [14]: 4.5%
TJA-II-bound PSA in serum sample [14]: 9.5 ng/mL
TJA-II binding ratio [15]: 7%
TJA-II-bound PSA in serum sample [15]: 6.3 ng/mL
TJA-II binding ratio [16]: 10.8%
TJA-II-bound PSA in serum sample [16]: 388 ng/mL
TJA-II binding ratio [17]: 8.2%
TJA-II-bound PSA in serum sample [17]: 5.58 ng/mL
TJA-II binding ratio [18]: 21%
TJA-II-bound PSA in serum sample [18]: 0.9 ng/mL
TJA-II binding ratio [19]: 14%
TJA-II-bound PSA in serum sample [19]: 0.84 ng/mL
TJA-II binding ratio [20]: 4.6%
TJA-II-bound PSA in serum sample [20]: 0.46 ng/mL
TJA-II binding ratio [21]: 23%
TJA-II-bound PSA in serum sample [21]: 1.04 ng/mL
TJA-II binding ratio [22]: 8%
TJA-II-bound PSA in serum sample [22]: 4.3 ng/mL
TJA-II binding ratio [23]: 5%
TJA-II-bound PSA in serum sample [23]: 0.24 ng/mL
TJA-II binding ratio [24]: 4%
TJA-II-bound PSA in serum sample [24]: 0.85 ng/mL
TJA-II binding ratio [25]: 5%
TJA-II-bound PSA in serum sample [25]: 0.61 ng/mL
TJA-II binding ratio [26]: 1.2%
TJA-II-bound PSA in serum sample [26]: 0.2 ng/mL
TJA-II binding ratio [27]: < 0.05%
TJA-II binding ratio [28]: 0.2%
TJA-II-bound PSA in serum sample [28]: 0.02 ng/mL
TJA-II binding ratio [29]: 0.6%
TJA-II-bound PSA in serum sample [29]: 0.04 ng/mL
TJA-II binding ratio [30]: 1.5%
TJA-II-bound PSA in serum sample [30]: 0.12 ng/mL
TJA-II binding ratio [31]: 1.8%
TJA-II-bound PSA in serum sample [31]: 0.17 ng/mL
TJA-II binding ratio [32]: < 0.05%
TJA-II binding ratio [33]: 1%
TJA-II-bound PSA in serum sample [33]: 0.09 ng/mL
TJA-II binding ratio [34]: < 0.05%

Maackia amurensis agglutinin
percent considered bound to the column [35]: 30%

Wisteria floribunda agglutinin
binding rate [36]: 11%
WFA binding ratio [37]: 9.4%
WFA-bound PSA in serum sample [37]: 328 ng/mL
WFA binding ratio [38]: 7.5%
WFA-bound PSA in serum sample [38]: 3.91 ng/mL
WFA binding ratio [39]: 4.2%
WFA-bound PSA in serum sample [39]: 0.49 ng/mL
